Reference: US20230265151A1, “GIP/GLP1 CO-AGONIST COMPOUNDS” (priority 2020, published 2023)
*1 amine or outer side, *2 acyl side, *3 side chain or, on linkers, in order; H or OH if unused. Where no end group is shown, it is not given here. Side-chain parts run from the residue outwards. [ ]: non-standard residue; d: D form. The star is where a group is joined. Decanoyl(10-(4-HOOC-PhO)) = O=C(O)c1ccc(OCCCCCCCCCC(=O)*)cc1; αMePhe(2-F) = C[C@](N)(Cc1ccccc1F)C(=O)O; γGlu = O=C(O)[C@H](CCC(=O)[*:2])N[*:1]; αMeY = C[C@](N)(Cc1ccc(O)cc1)C(=O)O; αMeL = CC(C)C[C@](C)(N)C(=O)O; Orn = NCCC[C@H](N)C(=O)O; AEEA = NCCOCCOCC(=O)O; Aib = CC(C)(N)C(=O)O

T1: human GIP receptor (human, UniProt P48546 22-466)
T1 sequence (looked up): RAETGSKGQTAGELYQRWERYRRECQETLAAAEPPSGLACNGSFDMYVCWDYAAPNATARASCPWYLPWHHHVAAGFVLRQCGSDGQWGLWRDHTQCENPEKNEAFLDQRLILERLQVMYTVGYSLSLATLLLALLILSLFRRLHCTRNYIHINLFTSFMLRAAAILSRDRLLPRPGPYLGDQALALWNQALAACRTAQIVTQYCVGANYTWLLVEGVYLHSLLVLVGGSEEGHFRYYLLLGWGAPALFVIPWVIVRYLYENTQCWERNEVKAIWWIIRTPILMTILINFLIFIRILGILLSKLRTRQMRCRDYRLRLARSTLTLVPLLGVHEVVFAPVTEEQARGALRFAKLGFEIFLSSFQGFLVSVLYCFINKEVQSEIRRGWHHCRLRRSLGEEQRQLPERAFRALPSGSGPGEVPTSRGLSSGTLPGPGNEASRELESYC

T2: human GIP receptor (human) (UniProt P48546)
T2 sequence (looked up): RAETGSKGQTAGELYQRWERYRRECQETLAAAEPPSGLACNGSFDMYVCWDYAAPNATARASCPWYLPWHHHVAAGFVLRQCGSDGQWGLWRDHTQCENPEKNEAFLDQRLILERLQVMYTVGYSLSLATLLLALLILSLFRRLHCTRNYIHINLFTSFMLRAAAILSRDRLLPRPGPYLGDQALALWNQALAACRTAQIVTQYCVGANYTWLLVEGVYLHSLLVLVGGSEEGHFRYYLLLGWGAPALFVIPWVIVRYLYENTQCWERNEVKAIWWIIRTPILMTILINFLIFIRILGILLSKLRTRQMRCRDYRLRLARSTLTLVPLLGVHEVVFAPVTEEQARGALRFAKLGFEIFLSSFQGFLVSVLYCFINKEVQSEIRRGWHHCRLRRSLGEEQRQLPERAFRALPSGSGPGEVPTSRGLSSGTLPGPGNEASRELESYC


Legend:
Assay in all cases: cell-based or functional assay
human GIP receptor = target: T1, human GIP receptor
human GLP-1 receptor = human GLP-1 receptor (human, UniProt P43220 24-463)
human glucagon receptor = human glucagon receptor (human, UniProt P47871 26-477)
Sequence of human glucagon receptor (P47871 26-477): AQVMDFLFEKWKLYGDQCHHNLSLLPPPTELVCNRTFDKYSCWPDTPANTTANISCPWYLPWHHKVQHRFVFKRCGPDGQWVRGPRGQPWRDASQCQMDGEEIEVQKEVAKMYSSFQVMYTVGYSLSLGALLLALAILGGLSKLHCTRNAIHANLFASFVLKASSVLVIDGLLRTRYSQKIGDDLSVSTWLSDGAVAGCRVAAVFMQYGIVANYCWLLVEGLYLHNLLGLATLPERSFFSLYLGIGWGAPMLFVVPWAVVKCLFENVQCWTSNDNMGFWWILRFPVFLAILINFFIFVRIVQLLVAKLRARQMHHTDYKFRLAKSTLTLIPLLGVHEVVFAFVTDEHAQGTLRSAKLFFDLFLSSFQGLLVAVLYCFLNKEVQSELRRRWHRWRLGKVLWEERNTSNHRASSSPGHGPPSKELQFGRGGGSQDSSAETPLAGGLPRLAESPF

[1] = target: human glucagon receptor (human) (UniProt P47871)
[2] = target: T2, human GIP receptor (human)
hGLP-1R = hGLP-1R (Homo sapiens, UniProt P43220)

Binder | cAMP EC50 (1.0% HSA) (human GIP receptor) [nM] | cAMP Emax (1.0% HSA) (human GIP receptor) [%] | cAMP EC50 (1.0% HSA) (human GLP-1 receptor) [nM] | cAMP EC50 (1.0% HSA) (human glucagon receptor) [nM] | cAMP EC50 [1] [nM] | cAMP EC50 [2] [nM] | cAMP Emax [2] [%] | cAMP EC50 (hGLP-1R) [nM] | cAMP Emax (hGLP-1R) [%] | cAMP Emax (1.0% HSA) (human GLP-1 receptor) [%]
Y[Aib]EGT[αMePhe(2-F)]TSDV[Aib]I[αMeL]LD[Orn]K([AEEA-γGlu-Decanoyl(10-(4-HOOC-PhO))])AQ[Aib]EFI[dE][αMeY]LIK([AEEA-γGlu-Decanoyl(10-(4-HOOC-PhO))])GGPSSGAPPPS-NH2 [Example 379] | 11.6 | 90 | 48.5 | > 9950 | > 9950 | 0.0167 | 97.5 | 0.171 | 104 | 
Y[Aib]EGT[αMePhe(2-F)]TSDV[Aib]I[αMeL]LD[Orn]IAQ[Aib]K([AEEA-γGlu-Decanoyl(10-(4-HOOC-PhO))])FI[dE][αMeY]LIK([AEEA-γGlu-Decanoyl(10-(4-HOOC-PhO))])GGPSSGAPPPS-NH2 [Example 382] | 18.7 | 87.2 | 204 | > 9950 | > 9950 | 0.0302 | 97.6 | 0.619 | 101 | 
Y[Aib]EGT[αMePhe(2-F)]TSDV[Aib]I[αMeL]LD[Orn]IAQ[Aib]K([AEEA-AEEA-γGlu-Decanoyl(10-(4-HOOC-PhO))])FI[dE][αMeY]LIEGGPSSGAPPPSK([AEEA-AEEA-γGlu-Decanoyl(10-(4-HOOC-PhO))])-NH2 [Example 383] | 10.7 | 82.8 | 92.2 | > 9950 | > 9950 | 0.0147 | 100 | 0.306 | 105 | 102
YXEGTXTSDXXIXLDXKAQXKFIXXLIEGGPSSGAPPPS (Y-Aib-EGT-αMeF(2F)-TSD-4Pal-Aib-I-αMeL-LD-Orn-K((2-[2-(2-Amino-ethoxy)-ethoxy]-acetyl)-(γ-Glu)-(10-(4-carboxyphenoxy)decanoyl))AQ-Aib-K((2-[2-(2-Amino-ethoxy)-ethoxy]-acetyl)-(γ-Glu)-(10-(4-carboxyphenoxy)decanoyl))FI-(D-Glu)-αMeY-LIEGGPSSGAPPPS-NH2) [Example 360] | 1.91 |  | 28.2 | > 9950 | > 9950 | 0.0121 | 106 | 0.301 | 89.8 | 
YXEGTXTSDYXIXLDXKAQXKFIXXLIEGGPSSGAPPPS (Y-Aib-EGT-αMeF(2F)-TSDY-Aib-I-αMeL-LD-Orn-K((2-[2-(2-Amino-ethoxy)-ethoxy]-acetyl)2-CO-(CH2)12-CO2H)AQ-Aib-K((2-[2-(2-Amino-ethoxy)-ethoxy]-acetyl)2-CO-(CH2)12-CO2H)FI-(D-Glu)-αMeY-LIEGGPSSGAPPPS-NH2) [Example 385] | 0.558 | 83.5 | 10.6 | > 9950 | > 9950 | 0.0154 | 95.2 | 0.189 | 100 | 112
YXEGTXTSDYXIXLDXKAQXEFIXXLIKGGPSSGAPPPS (Y-Aib-EGT-αMeF(2F)-TSDY-Aib-I-αMeL-LD-Orn-K((2-[2-(2-Amino-ethoxy)-ethoxy]-acetyl)-(γ-Glu)-(10-(4-carboxyphenoxy)decanoyl))AQ-Aib-EFI-(D-Glu)-αMeY-LIK((2-[2-(2-Amino-ethoxy)-ethoxy]-acetyl)-(γ-Glu)-(10-(4-carboxyphenoxy)decanoyl))GGPSSGAPPPS-NH2) [Example 373] | 2.84 |  | 37.4 | > 9950 | > 9950 | 0.0152 | 101 | 0.329 | 101 | 
YXEGTXTSDXXIXLDXKAQXKFIXXLIEGGPSSGAPPPS (Y-Aib-EGT-αMeF(2F)-TSD-4Pal-Aib-I-αMeL-LD-Orn-K((2-[2-(2-Amino-ethoxy)-ethoxy]-acetyl)2-CO-(CH2)12-CO2H)AQ-Aib-K((2-[2-(2-Amino-ethoxy)-ethoxy]-acetyl)2-CO-(CH2)12-CO2H)FI-(D-Glu)-αMeY-LIEGGPSSGAPPPS-NH2) [Example 384] | 0.457 |  | 5.32 | > 9950 | > 9950 | 0.0124 | 94.5 | 0.308 | 98.2 | 
YXEGTXTSDYXIXLDXKAQXEFIXXLIKGGPSSGAPPPS (Y-Aib-EGT-αMeF(2F)-TSDY-Aib-I-αMeL-LD-Orn-K((2-[2-(2-Amino-ethoxy)-ethoxy]-acetyl)2-CO-(CH2)12-CO2H)AQ-Aib-EFI-(D-Glu)-αMeY-LIK((2-[2-(2-Amino-ethoxy)-ethoxy]-acetyl)2-CO-(CH2)12-CO2H)GGPSSGAPPPS-NH2) [Example 388] | 0.463 |  | 6.31 | > 9950 | > 9950 | 0.0103 | 98.3 | 0.292 | 95.4 | 
YXEGTXTSDYXIXLDXIAQXKFIXXLIKGGPSSGAPPPS (Y-Aib-EGT-αMeF(2F)-TSDY-Aib-I-αMeL-LD-Orn-IAQ-Aib-K((2-[2-(2-Amino-ethoxy)-ethoxy]-acetyl)-(γ-Glu)-(10-(4-carboxyphenoxy)decanoyl))FI-(D-Glu)-αMeY-LIK((2-[2-(2-Amino-ethoxy)-ethoxy]-acetyl)-(γ-Glu)-(10-(4-carboxyphenoxy)decanoyl))GGPSSGAPPPS-NH2) [Example 376] | 39.6 | 88.3 | 419 | > 9950 | > 9950 | 0.0281 | 99.8 | 0.539 | 104 | 121
YXEGTXTSDYXIXLDXKAQXKFIXXLIEGGPSSGAPPPS (Y-Aib-EGT-αMeF(2F)-TSDY-Aib-I-αMeL-LD-Orn-K((2-[2-(2-Amino-ethoxy)-ethoxy]-acetyl)-(γ-Glu)-CO-(CH2)12-CO2H)AQ-Aib-K((2-[2-(2-Amino-ethoxy)-ethoxy]-acetyl)-(γ-Glu)-CO-(CH2)12-CO2H)FI-(D-Glu)-αMeY-LIEGGPSSGAPPPS-NH2) [Example 366] | 3.14 | 95.9 | 96.2 | > 9950 | > 9950 | 0.0162 | 108 | 0.279 | 89.6 | 
